Target: FLAG-tagged human importin-α7 (human) (UniProt O60684)
Assay: co-IP

With “nucleoprotein (NP) of 2009 pandemic H1N1 influenza A virus A/Hamburg/NY1580/09, parental (natural protein)” the fold binding against importin-α1 was 10 fold.
